From patent publication US20200181277A1 come the findings set out here.

Assay [1] addresses purified human C1q (human) (UniProt P02745). The experiment in a line: cell-based or functional assay.
For a further assay, the target named is human CD40 (human) (UniProt P25942). Nature of the assay: cell-based or functional assay.
Chain of human CD40 (human) (P25942 21-277): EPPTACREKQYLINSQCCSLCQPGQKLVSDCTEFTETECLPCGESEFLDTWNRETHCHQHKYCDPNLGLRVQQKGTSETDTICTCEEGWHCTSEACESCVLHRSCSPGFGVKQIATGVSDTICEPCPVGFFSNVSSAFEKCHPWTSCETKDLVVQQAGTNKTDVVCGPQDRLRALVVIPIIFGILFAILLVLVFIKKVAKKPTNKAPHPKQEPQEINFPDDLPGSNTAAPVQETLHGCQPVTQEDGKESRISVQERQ

Consider IgG1-b12 (antibody), for which the C1q EC90 (µg/mL), viability assay on WIL2-S SF cells in assay [1] is more than 2.5 µg/mL.
“purified, recombinant CD40 ligand (R&D systems, Cat No. 6420-CL-025/CF) (from UniProt P29965 108-261)” showed a CD40 response, luciferase reporter cells, EC50 in the assay with human CD40 (human) of 0.113 µg/mL.
